Reference: patent US20240409635A1 (VIBRANT PHARMA, published 2024)
Where a chain is given by its changes, count along the chain named.

T1: recombinant human tumor antigen CEACAM-6 (ACRO systems, CE6-H5223) (human, UniProt P40199 35-320)
T1 construct: Bought
T1 sequence (looked up): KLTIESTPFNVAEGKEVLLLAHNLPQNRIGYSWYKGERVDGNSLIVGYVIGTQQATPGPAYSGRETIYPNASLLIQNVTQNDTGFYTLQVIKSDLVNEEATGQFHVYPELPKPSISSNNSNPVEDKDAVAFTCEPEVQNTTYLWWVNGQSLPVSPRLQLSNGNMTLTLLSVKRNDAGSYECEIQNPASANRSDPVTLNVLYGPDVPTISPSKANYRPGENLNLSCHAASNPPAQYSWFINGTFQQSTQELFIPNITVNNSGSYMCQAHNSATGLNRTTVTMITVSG

T2: recombinant human tumor antigen CEA (CEACAM-5/CD66e, ACRO systems, CE5-H5226) (human, UniProt P06731 35-685)
T2 construct: Bought
T2 sequence (looked up): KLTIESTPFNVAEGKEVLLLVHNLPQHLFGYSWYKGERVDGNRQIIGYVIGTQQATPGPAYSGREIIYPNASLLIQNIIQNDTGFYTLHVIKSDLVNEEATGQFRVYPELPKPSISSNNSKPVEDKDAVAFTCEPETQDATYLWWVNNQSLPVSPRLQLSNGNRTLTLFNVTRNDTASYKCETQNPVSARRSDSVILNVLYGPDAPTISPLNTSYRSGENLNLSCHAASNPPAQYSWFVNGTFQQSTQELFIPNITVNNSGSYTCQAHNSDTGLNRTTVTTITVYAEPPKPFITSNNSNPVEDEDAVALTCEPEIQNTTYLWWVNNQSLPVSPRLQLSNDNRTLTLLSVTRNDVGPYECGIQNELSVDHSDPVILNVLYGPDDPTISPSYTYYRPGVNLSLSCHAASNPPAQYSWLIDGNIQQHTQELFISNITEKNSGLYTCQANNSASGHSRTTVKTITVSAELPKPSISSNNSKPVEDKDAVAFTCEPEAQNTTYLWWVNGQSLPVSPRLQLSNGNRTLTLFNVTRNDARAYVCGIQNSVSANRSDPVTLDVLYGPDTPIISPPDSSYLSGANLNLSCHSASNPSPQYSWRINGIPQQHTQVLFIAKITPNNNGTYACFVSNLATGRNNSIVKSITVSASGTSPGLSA

B1: EGFR-BsAb bispecific control antibody (anti-CD3 TA1 Fab and EGFR VHH) (bispecific antibody, human IgG4 S228P, kappa, F234A L235A)
heavy: EVKLLESGGGLVQPKGSLKLSCAASGFTFNTYAMNWVRQAPGKGLEWVARIRSKYNNYATYYADSVKDRFTISRDDSQSILYLQMNNLKTEDTAMYYCVRHGNFGNSYVSWFAYWGQGTLVTVSSASTKGPSVFPLAPCSRSTSESTAALGCLVKDYFPEPVTVSWNSGALTSGVHTFPAVLQSSGLYSLSSVVTVPSSSLGTKTYTCNVDHKPSNTKVDKRVESKYGPPCPPCPAPEAAGGPSVFLFPPKPKDTLMISRTPEVTCVVVDVSQEDPEVQFNWYVDGVEVHNAKTKPREEQFNSTYRVVSVLTVLHQDWLNGKEYKCKVSNKGLPSSIEKTISKAKGQPREPQVYTLPPCQEEMTKNQVSLWCLVKGFYPSDIAVEWESNGQPENNYKTTPPVLDSDGSFFLYSRLTVDKSRWQEGNVFSCSVMHEALHNHYTQKSLSLSL
chain: QVQLQESGGGSVQAGGSLKLSCAASGRGFSRYAMGWFRQAPGQDREFVATISWTNSTDYADSVKGRFAISRDNAKNTAYLQMNSLKPEDTAVYYCAADKWASSTRSIDYDYWGQGIQVTVSSESKYGPPCPPCPAPEAAGGPSVFLFPPKPKDTLMISRTPEVTCVVVDVSQEDPEVQFNWYVDGVEVHNAKTKPREEQFNSTYRVVSVLTVLHQDWLNGKEYKCKVSNKGLPSSIEKTISKAKGQPREPQVCTLPPSQEEMTKNQVSLSCAVKGFYPSDIAVEWESNGQPENNYKTTPPVLDSDGSFFLVSRLTVDKSRWQEGNVFSCSVMHEALHNRFTQKSLSLSL
light: QAVVTQESALTTSPGETVTLTCRSSTGAVTTSNYANWVQEKPDHLFTGLIGGTNKRAPGVPARFSGSLIGDKAALTITGAQTEDEAIYFCALWYSNLWVFGGGTKVEIKRTVAAPSVFIFPPSDEQLKSGTASVVCLLNNFYPREAKVQWKVDNALQSGNSQESVTEQDSKDSTYSLSSTLTLSKADYEKHKVYACEVTHQGLSSPVTKSFNRGEC
B2: CEA-BsAb bispecific control antibody (TA1-Fab CD3 x CEA VHH) (bispecific antibody, human IgG4 S228P, kappa, F234A L235A)
heavy: B1 heavy
chain: EVQLVESGGGFVQAGESLTLSCTSSTLTFTPYRMAWYRQAPGKQRDLVADISSGDGRTTNYADFAKGRFTISRDNIKNTVFLRMTNLKPEDTAVYYCNTFVSFVGIARSWGQGTQVTVSSESKYGPPCPPCPAPEAAGGPSVFLFPPKPKDTLMISRTPEVTCVVVDVSQEDPEVQFNWYVDGVEVHNAKTKPREEQFNSTYRVVSVLTVLHQDWLNGKEYKCKVSNKGLPSSIEKTISKAKGQPREPQVCTLPPSQEEMTKNQVSLSCAVKGFYPSDIAVEWESNGQPENNYKTTPPVLDSDGSFFLVSRLTVDKSRWQEGNVFSCSVMHEALHNRFTQKSLSLSL
light: B1 light
B3: EGFR-BsAb (CD3 TA1-Fab x EGFR VHH bispecific control antibody) (bispecific antibody, human IgG4 S228P, kappa, F234A L235A)
heavy: B1 heavy
chain: B1 chain
light: B1 light
notes: also called anti-EGFR-BsAb
B4: unilateral CD3/CEA/HER2 trispecific antibody 611 (other)
chain 1: QVQLVQSGGGLVQAGGSLRLSCAASGRTFSSYAMAWFRQAPGKEREFVAAISWSGANIYVADSVKGRFTISRDNAKDTVYLQMNSLKPEDTAVYYCAVKLGFAPVEERQYDYWGQGTQVTVSSGGGGSGGGGSEVKLLESGGGLVQPKGSLKLSCAASGFTFNTYAMNWVRQAPGKGLEWVARIRSKYNNYATYYADSVKDRFTISRDDSQSILYLQMNNLKTEDTAMYYCVRHGNFGNSYVSWFAYWGQGTLVTVSSASTKGPSVFPLAPCSRSTSESTAALGCLVKDYFPEPVTVSWNSGALTSGVHTFPAVLQSSGLYSLSSVVTVPSSSLGTKTYTCNVDHKPSNTKVDKRVESKYGPPCPPCPAPEAAGGPSVFLFPPKPKDTLMISRTPEVTCVVVDVSQEDPEVQFNWYVDGVEVHNAKTKPREEQFNSTYRVVSVLTVLHQDWLNGKEYKCKVSNKGLPSSIEKTISKAKGQPREPQVYTLPPCQEEMTKNQVSLWCLVKGFYPSDIAVEWESNGQPENNYKTTPPVLDSDGSFFLYSRLTVDKSRWQEGNVFSCSVMHEALHNHYTQKSLSLSL
chain 2: B2 chain
chain 3: B1 light
B5: unilateral CD3/CEA/HER2 trispecific antibody 612 (other)
chain 1: B2 chain with C251Y, S256C, S268W, A270L, V309Y, R337H, F338Y
chain 2: B4 chain 1 with Y487C, C492S, W504S, L506A, Y545V, H573R, Y574F
chain 3: B1 light
B6: HER2-BsAb (CD3 TA1-Fab x HER2 VHH bispecific control antibody) (bispecific antibody, human IgG4 S228P, kappa, F234A L235A)
heavy: B1 heavy
chain: QVQLVQSGGGLVQAGGSLRLSCAASGRTFSSYAMAWFRQAPGKEREFVAAISWSGANIYVADSVKGRFTISRDNAKDTVYLQMNSLKPEDTAVYYCAVKLGFAPVEERQYDYWGQGTQVTVSSESKYGPPCPPCPAPEAAGGPSVFLFPPKPKDTLMISRTPEVTCVVVDVSQEDPEVQFNWYVDGVEVHNAKTKPREEQFNSTYRVVSVLTVLHQDWLNGKEYKCKVSNKGLPSSIEKTISKAKGQPREPQVCTLPPSQEEMTKNQVSLSCAVKGFYPSDIAVEWESNGQPENNYKTTPPVLDSDGSFFLVSRLTVDKSRWQEGNVFSCSVMHEALHNRFTQKSLSLSL
light: B1 light

Tests used:
[1] = target: epidermal growth factor receptor (EGFR) on human tumor cells (human, UniProt P00533 25-1210); assay: cell-based or functional assay
[2] = target: T3, recombinant human CD3ε/δ protein (ACRO systems, CDD-H52W1) (human, UniProt P07766 23-126; P04234 22-105); assay: BLI, antibody captured on AHC sensor
T3 construct: Bought reagent
T3 sequence (P07766 23-126, stated change not applied, chain 1 of 2): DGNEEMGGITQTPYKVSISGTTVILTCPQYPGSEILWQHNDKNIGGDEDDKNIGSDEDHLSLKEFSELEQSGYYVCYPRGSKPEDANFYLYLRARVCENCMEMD
T3 sequence (P04234 22-105, stated change not applied, chain 2 of 2): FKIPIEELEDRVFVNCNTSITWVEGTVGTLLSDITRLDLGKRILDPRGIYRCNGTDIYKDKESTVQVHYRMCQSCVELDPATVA
Procedure: (§1) Antibodies were first captured onto an anti-human IgG Fc coated AHC biosensor (Anti-hIgG Fc, Sartorius, 18-5060). Antibodies were diluted to 5 μg/mL and 1.5 nm protein was coupled to the AHC sensor surface in 0.02% PBST.
(§2) After the sensor captures the antibodies, it is used to bind and dissociate with different concentrations of analytes to obtain the KD value of the interaction. The experimental parameters are as follows: Baseline1: 60 s, Loading: 240 s, Baseline2: 180 s, Association: 240 s, Dissociation: 600 s, High sensitivity kinetics: 2 Hz. Kinetic constants were derived based on the rate equation for 1:1 Langmuir binding to obtain equilibrium dissociation constants (KD). The Data Analysis HT 12 software (Sartorius, 50-5029) was used to simultaneously fit binding and dissociation curves to calculate Kₒₙ, and Koff. The affinity KD was calculated based on the below formula: KD=Koff/Kₒₙ.

[3] = target: T4, recombinant human protein CD3ε/δ (ACRO systems, CDD-H52W1) (human, UniProt P07766 23-126; P04234 22-105); assay: BLI, antibody on AHC sensor, antigen as analyte
T4 construct: Bought heterodimer
T4 sequence (P07766 23-126, stated change not applied, chain 1 of 2): as the sequence (P07766 23-126, stated change not applied, chain 1 of 2) above
T4 sequence (P04234 22-105, stated change not applied, chain 2 of 2): as the sequence (P04234 22-105, stated change not applied, chain 2 of 2) above
Procedure: as §1
as §2, with “binds” for “is used to bind”, “dissociates” for “dissociate”, “Kₒₙ” for “Kₒₙ,”

[4] = target: T5, recombinant human EGFR protein (ACRO systems, EGR-H5222) (human, UniProt P00533 25-645); assay: BLI, antibody on AHC sensor, antigen as analyte
T5 construct: Bought
Procedure: as §1
as §2, with “binds” for “is used to bind”, “dissociates” for “dissociate”, “Kₒₙ” for “Kₒₙ,”

[5] = target: T1, recombinant human tumor antigen …; assay: BLI, antibody on AHC sensor, antigen as analyte
Procedure: as §1
as §2, with “binds” for “is used to bind”, “dissociates” for “dissociate”, “Kₒₙ” for “Kₒₙ,”

[6] = target: T2, recombinant human tumor antigen CEA …; assay: BLI, antibody on AHC sensor, antigen as analyte
Procedure: as §1
as §2, with “binds” for “is used to bind”, “dissociates” for “dissociate”, “Kₒₙ” for “Kₒₙ,”

[7] = target: T6, recombinant human tumor antigen HER2 (ERBB2, ACRO systems, HE2-H5212) (human, UniProt P04626 23-652); assay: BLI, antibody on AHC sensor, antigen as analyte
T6 construct: Bought
Procedure: as §1
as §2, with “binds” for “is used to bind”, “dissociates” for “dissociate”, “Kₒₙ” for “Kₒₙ,”

Row | Binder | Kd [3] | koff [3] | kon [3] | Kd [6] | koff [6] | kon [6] | Kd [7] | koff [7] | kon [7] | further results
1 | B1 | – | – | – | – | – | – | – | – | – | T cell mediated killing EC50, H-1975 (EGFR+c-Met+) [1]: 0.00032 nM; T cell mediated killing EC50, HT-29 (EGFR+c-Met+) [1]: 0.000387 nM; T cell mediated killing EC50, OSRC2 (EGFR+++c-Met+) [1]: 0.00245 nM; T cell mediated killing EC50, UT33A (EGFR+++c-Met+++) [1]: 0.000398 nM; T cell mediated killing EC50, UT44 (EGFR+++c-Met++) [1]: 0.000154 nM
2 | B2 | – | – | – | – | – | – | – | – | – | Kd [2]: 0.491 nM; koff [2]: 0.000236 s⁻¹; kon [2]: 481000 M⁻¹ s⁻¹
3 | B3 | 6.43 nM | 0.00338 s⁻¹ | 526000 M⁻¹ s⁻¹ | – | – | – | – | – | – | Kd [4]: 4.43 nM; koff [4]: 0.00519 s⁻¹; kon [4]: 1.17e+06 M⁻¹ s⁻¹; koff [5]: 0.000247 s⁻¹; kon [5]: 222000 M⁻¹ s⁻¹
4 | B4 | 1.77 nM | 0.000727 s⁻¹ | 410000 M⁻¹ s⁻¹ | 0.195 nM | 0.000108 s⁻¹ | 553000 M⁻¹ s⁻¹ | 105 nM | 0.0116 s⁻¹ | 111000 M⁻¹ s⁻¹ | –
5 | B5 | 1.77 nM | 0.000682 s⁻¹ | 386000 M⁻¹ s⁻¹ | 0.193 nM | 0.000105 s⁻¹ | 542000 M⁻¹ s⁻¹ | 108 nM | 0.0122 s⁻¹ | 113000 M⁻¹ s⁻¹ | –
6 | B6 | 1.51 nM | 0.000386 s⁻¹ | 256000 M⁻¹ s⁻¹ | – | 0.000391 s⁻¹ | 877000 M⁻¹ s⁻¹ | 98.4 nM | 0.0126 s⁻¹ | 128000 M⁻¹ s⁻¹ | –
